Laboratory results reported in patent publication US20100239570A1 (published 2010).
Where no end group is shown, it is not given here.

T1: peptide consisting of amino acids 22-35 of Abeta (UniProt P05067 693-706)
T1 construct: range 22-35; Range is counted on the Abeta peptide; also called Abeta22-35
T1 peptide (looked up): EDVGSNKGAIIGLM

T2: Abeta1-11 (UniProt P05067 672-682)
T2 construct: range 1-11; Range is counted on the Abeta peptide
T2 peptide (looked up): DAEFRHDSGYE

T3: Abeta17-28 (UniProt P05067 688-699)
T3 construct: range 17-28; Range is counted on the Abeta peptide
T3 peptide (looked up): LVFFAEDVGSNK

B1: antibody NI-103 (antibody, V domains shown)
VH: EVQLHQSGPELVKPGASVKISCKTSGYTFTEYTMHWVKQSHGKSLEWIGGVNPYNDNTSYIRKLQGKVTLTVDRSSSTAYMELRSLTSEDSAVYFCARYGGLRPYYFPMDFWGQGTSVTVSS
VL: QVVLSQSPAILSASPGERVTLTCRASSSVNYMHWYQQKPGSSPKAWIYATSNLASGVPDRFSASGSGTSYSLTISRVEAEDAATYYCQQWRTNPPTFGAGTKLELKR
notes: detected in ELISA with anti-mouse IgG; treated as the same molecule
B2: Abeta29-40 fragment (peptide)
peptide: GAIIGLMVGGVV
modifications: not fully specified

Experiments:
[1] = molecular target: T4, Abeta1-38 (UniProt P05067 672-709); assay: ELISA, peptide coated at 1 ug/ml
T4 construct: range 1-38; Range is counted on the Abeta peptide; also called Abeta fragment consisting of amino acids 1-38
Protocol: (§1) 96 well half area Microplates (Corning) were coated with synthetic Abeta-peptide preparations at a standard concentration of 1 μg/ml in coating buffer (15 mM Na₂CO₃, 35 mM NaHCO₃, pH 9.42) overnight at 4° C. Plates were washed and non-specific binding sites were blocked for 1 h at RT with PBS containing 2% BSA (Sigma, Buchs, Switzerland).

[2] = molecular target: T5, Abeta1-28 (UniProt P05067 672-699); assay: ELISA, peptide coated at 1 ug/ml
T5 construct: range 1-28; Range is counted on the Abeta peptide
Protocol: as §1

[3] = molecular target: T1, peptide consisting of amino acids 22-35 …; assay: ELISA, peptide coated at 1 ug/ml
Protocol: as §1

[4] = molecular target: T2, Abeta1-11; assay: ELISA, peptide coated at 1 ug/ml
Protocol: as §1

[5] = molecular target: T3, Abeta17-28; assay: ELISA, peptide coated at 1 ug/ml
Protocol: as §1

[6] = molecular target: B2; assay: ELISA, peptide coated at 1 ug/ml
Protocol: as §1

[7] = molecular target: T6, human wild type APP fused at the intracellular C-terminus to the yellow fluorescent protein variant Citrine, … (human, UniProt P05067 18-770); assay: immunofluorescence on live HEK 293 cells expressing human APP-Citrine, 30 min at 4 C
T6 construct: whole, on cells; also called cellular full-length APP; cell-surface APP; not shown: yellow fluorescent protein variant Citrine at the intracellular C-terminus
Protocol: HEK 293 cells were transiently transfected with a vector that expresses human wild type APP fused at the intracellular C-terminus to the yellow fluorescent protein variant Citrine. 24 hours after transfection the cells were incubated with human recombinant antibodies or control antibodies at 4° C. for 30 minutes. After a washing step the cell were fixed and surface-bound antibody was detected using Cy-3-labeled secondary antibodies to human or mouse IgG (Jackson ImmunoResearch). Analysis of fluorescence was performed on a confocal microscope (Leica).
Citrin-positive signals indicate APP-expressing cells.

[8] = molecular target: B1; assay: competition ELISA, peptide at 1 µM in solution against coated Abeta1-42
Protocol: as §1

binding result [1]	binding result [2]	binding result [3]	binding result [4]	binding result [5]	binding result [6]	binding result [7]	binding result [8]	Binder
no binding	no binding	no binding	no binding	no binding	binds	no binding		B1
							binds	B2
